According to patent US6617118B2, “Monoclonal antibody for analysis and clearance of polyethylene glycol and polyethylene glycol-modified molecules” (priority 1999, dated 2003):

Columns and labels:
[1] = βG enzymatic activity of PEG-modified βG and conjugates; assay type: biochemical; details: purified by gel filtration, 9.2 sPEG groups/βG subunit
immobilized AGP3 = assay: AGP3 sandwich ELISA (AGP3 capture, AGP3-biotin detection); assay type: binding; details: unmodified protein in PBS
Protocol: AGP3 ELISA: Maxisorp™ 96-well microplates (Nunc™, Roskilde, Denmark) were coated with 50 μL/well of AGP3 (200 μg/ml in PBS) for 3 h at 37° C. Plates were blocked with 2% skim milk in PBS overnight and washed twice with PBS/T (0.05% Tween-20 in PBS) before serial dilutions of βG or βG-pPEG (50 μL in dilution buffer) were added to wells for 1.5 h at room temperature. Plates were washed 6 times with PBS/T and 50 μL/well AGP3-biotin (20 μg/ml in dilution buffer) was added for 1.5 h at room temperature. Plates were again washed with PBS/T and 50 μL/well streptavidin-HRP (1:1000) was added for 1 h at room temperature. Plates were washed before 100 μL/well ABTS substrate was added for 30 min at room temperature. Absorbance (405 nm) of wells was measured in a microtiter plate reader. The effect of serum on the AGP3 ELISA was examined by performing the assay in the presence of 10% serum isolated from healthy BALB/c mice.
A sandwich ELISA was developed in which AGP3 was employed for the capture step and AGP3-biotin used for detection. In FIG. 6, serial dilutions of βG-pPEG in PBS (◯) or 10% mouse serum (□) as well as βG in PBS (Δ) were incubated in a microtiter plate coated with AGP3. Binding of βG-pPEG to the immobilized AGP3 was detected by sequential addition of AGP3-biotin and streptavidin-HRP. Results represent mean values of triplicate determinations. […]

[2] = pH values less than 5.0 or greater than 9.0; 4 h at 37° C., assay at pH 7.0
Protocol: To test the pH stability of βG, enzyme in βG buffer was adjusted to pH values ranging from 3-11 for 4 h at 37° C. before neutralization to pH 7.0 and assay of enzymatic activity.

[3] = 150 μg i.v., after a period of rapid clearance
Protocol: Pharmacokinetics of βG-pPEG: Male BALB/c mice were i.v injected with 150 μg βG-pPEG. Serum was isolated from blood samples that were periodically removed from the tail vein of the mice. The concentration of βG-pPEG in serially-diluted serum samples was assayed in triplicate by the AGP3 ELISA. The concentration of βG-pPEG was determined by comparison to a standard curve generated with known concentrations of βG-pPEG.
A sandwich ELISA was developed in which AGP3 was employed for the capture step and AGP3-biotin used for detection. […] Binding of βG-pPEG to the immobilized AGP3 was detected by sequential addition of AGP3-biotin and streptavidin-HRP. Results represent mean values of triplicate determinations. Bars indicate the standard error of the mean. […] The effect of serum on the ELISA was examined by adding 10% mouse serum to samples before assay. […] The AGP3 ELISA was employed to measure the pharmacokinetics of βG-pPEG in mice. In FIG. 7, a BALB/c mouse was i.v. injected with 150 μg βG-pPEG. Blood samples were periodically removed from the tail vein and assayed for βG-pPEG concentration by ELISA.

B1: βG-sPEG: β-glucuronidase modified with sPEG (conjugate, UniProt P05804 1-603, looked up)
Beta-glucuronidase: MLRPVETPTREIKKLDGLWAFSLDRENCGIDQRWWESALQESRAIAVPGSFNDQFADADIRNYAGNVWYQREVFIPKGWAGQRIVLRFDAVTHYGKVWVNNQEVMEHQGGYTPFEADVTPYVIAGKSVRITVCVNNELNWQTIPPGMVITDENGKKKQSYFHDFFNYAGIHRSVMLYTTPNTWVDDITVVTHVAQDCNHASVDWQVVANGDVSVELRDADQQVVATGQGTSGTLQVVNPHLWQPGEGYLYELCVTAKSQTECDIYPLRVGIRSVAVKGEQFLINHKPFYFTGFGRHEDADLRGKGFDNVLMVHDHALMDWIGANSYRTSHYPYAEEMLDWADEHGIVVIDETAAVGFNLSLGIGFEAGNKPKELYSEEAVNGETQQAHLQAIKELIARDKNHPSVVMWSIANEPDTRPQGAREYFAPLAEATRKLDPTRPITCVNVMFCDAHTDTISDLFDVLCLNRYYGWYVQSGDLETAEKVLEKELLAWQEKLHQPIIITEYGVDTLAGLHSMYTDMWSEEYQCAWLDMYHRVFDRVSAVVGEQVWNFADFATSQGILRVGGNKKGIFTRDRKPKSAAFLLQKRWTGMNFGEKPQQGGKQ
modifications: sPEG modified
original enzymatic activity possessed [1]: 69%

B2: Eschericia coli β-glucuronidase (protein, UniProt P05804 1-603, looked up)
Beta-glucuronidase: MLRPVETPTREIKKLDGLWAFSLDRENCGIDQRWWESALQESRAIAVPGSFNDQFADADIRNYAGNVWYQREVFIPKGWAGQRIVLRFDAVTHYGKVWVNNQEVMEHQGGYTPFEADVTPYVIAGKSVRITVCVNNELNWQTIPPGMVITDENGKKKQSYFHDFFNYAGIHRSVMLYTTPNTWVDDITVVTHVAQDCNHASVDWQVVANGDVSVELRDADQQVVATGQGTSGTLQVVNPHLWQPGEGYLYELCVTAKSQTECDIYPLRVGIRSVAVKGEQFLINHKPFYFTGFGRHEDADLRGKGFDNVLMVHDHALMDWIGANSYRTSHYPYAEEMLDWADEHGIVVIDETAAVGFNLSLGIGFEAGNKPKELYSEEAVNGETQQAHLQAIKELIARDKNHPSVVMWSIANEPDTRPQGAREYFAPLAEATRKLDPTRPITCVNVMFCDAHTDTISDLFDVLCLNRYYGWYVQSGDLETAEKVLEKELLAWQEKLHQPIIITEYGVDTLAGLHSMYTDMWSEEYQCAWLDMYHRVFDRVSAVVGEQVWNFADFATSQGILRVGGNKKGIFTRDRKPKSAAFLLQKRWTGMNFGEKPQQGGKQ
notes: recombinant Eschericia coli-derived β-glucuronidase
signal in AGP3 sandwich ELISA (immobilized AGP3): lack of signal | pH stability of enzymatic activity [2]: irreversibly deactivated

B3: βG-pPEG: β-glucuronidase modified with pPEG (conjugate, UniProt P05804 1-603, looked up)
Beta-glucuronidase: MLRPVETPTREIKKLDGLWAFSLDRENCGIDQRWWESALQESRAIAVPGSFNDQFADADIRNYAGNVWYQREVFIPKGWAGQRIVLRFDAVTHYGKVWVNNQEVMEHQGGYTPFEADVTPYVIAGKSVRITVCVNNELNWQTIPPGMVITDENGKKKQSYFHDFFNYAGIHRSVMLYTTPNTWVDDITVVTHVAQDCNHASVDWQVVANGDVSVELRDADQQVVATGQGTSGTLQVVNPHLWQPGEGYLYELCVTAKSQTECDIYPLRVGIRSVAVKGEQFLINHKPFYFTGFGRHEDADLRGKGFDNVLMVHDHALMDWIGANSYRTSHYPYAEEMLDWADEHGIVVIDETAAVGFNLSLGIGFEAGNKPKELYSEEAVNGETQQAHLQAIKELIARDKNHPSVVMWSIANEPDTRPQGAREYFAPLAEATRKLDPTRPITCVNVMFCDAHTDTISDLFDVLCLNRYYGWYVQSGDLETAEKVLEKELLAWQEKLHQPIIITEYGVDTLAGLHSMYTDMWSEEYQCAWLDMYHRVFDRVSAVVGEQVWNFADFATSQGILRVGGNKKGIFTRDRKPKSAAFLLQKRWTGMNFGEKPQQGGKQ
modifications: pPEG modified
first-order half-life of elimination from the circulation [3]: 19.2 h
